The values below are quoted from earlier work in publication PMC10643566, “Insights into the mechanism of SARS-CoV-2 main protease autocatalytic maturation from model precursors” (Communications Biology, 2023).

As a reminder, the Kd is the concentration at which binding is half-saturated.

The series deals with MPro (SARS-CoV-2) (UniProt P0DTD1). The settings on record: cited from earlier work.

Take MPro (from UniProt P0DTD1): the Kd was 1300 nM.
